Data taken from publication PMC7459580, “Molecular Basis for Endocrine Disruption by Pesticides Targeting Aromatase and Estrogen Receptor” (International Journal of Environmental Research and Public …, 2020).

Columns and labels:
aromatase (Aro) = target: T1, aromatase (Aro) (Homo sapiens, UniProt P11511); test: estrone competitive ELISA with purified aromatase and CPR; assay type: biochemical; conditions: read-out: % residual activity at 1000 nM
T1 construct: gene CYP19A1; recombinant human aromatase; with human cytochrome P450 reductase (hCPR), electron donor

[1] = test system: C[C@]12CCC(=O)C=C1CC[C@@H]1[C@@H]2CC[C@]2(C)C(=O)CC[C@@H]12; test: purified protein; conditions: heme; NADPH active site

T1 sequence (P11511 whole entry): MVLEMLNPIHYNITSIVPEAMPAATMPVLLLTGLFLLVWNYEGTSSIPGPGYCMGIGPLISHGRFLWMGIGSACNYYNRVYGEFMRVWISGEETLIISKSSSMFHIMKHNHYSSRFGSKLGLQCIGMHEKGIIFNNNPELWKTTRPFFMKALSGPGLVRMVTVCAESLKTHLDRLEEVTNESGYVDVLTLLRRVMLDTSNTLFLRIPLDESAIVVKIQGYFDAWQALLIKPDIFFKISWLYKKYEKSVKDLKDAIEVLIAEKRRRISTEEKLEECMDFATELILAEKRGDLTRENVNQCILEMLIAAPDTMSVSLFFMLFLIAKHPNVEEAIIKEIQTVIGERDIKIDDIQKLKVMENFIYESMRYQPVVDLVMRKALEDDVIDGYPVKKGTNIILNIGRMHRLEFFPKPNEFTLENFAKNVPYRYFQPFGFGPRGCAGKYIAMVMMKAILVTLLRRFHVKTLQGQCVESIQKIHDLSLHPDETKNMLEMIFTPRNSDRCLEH
T1 sequence (P16435 2-677, further chain): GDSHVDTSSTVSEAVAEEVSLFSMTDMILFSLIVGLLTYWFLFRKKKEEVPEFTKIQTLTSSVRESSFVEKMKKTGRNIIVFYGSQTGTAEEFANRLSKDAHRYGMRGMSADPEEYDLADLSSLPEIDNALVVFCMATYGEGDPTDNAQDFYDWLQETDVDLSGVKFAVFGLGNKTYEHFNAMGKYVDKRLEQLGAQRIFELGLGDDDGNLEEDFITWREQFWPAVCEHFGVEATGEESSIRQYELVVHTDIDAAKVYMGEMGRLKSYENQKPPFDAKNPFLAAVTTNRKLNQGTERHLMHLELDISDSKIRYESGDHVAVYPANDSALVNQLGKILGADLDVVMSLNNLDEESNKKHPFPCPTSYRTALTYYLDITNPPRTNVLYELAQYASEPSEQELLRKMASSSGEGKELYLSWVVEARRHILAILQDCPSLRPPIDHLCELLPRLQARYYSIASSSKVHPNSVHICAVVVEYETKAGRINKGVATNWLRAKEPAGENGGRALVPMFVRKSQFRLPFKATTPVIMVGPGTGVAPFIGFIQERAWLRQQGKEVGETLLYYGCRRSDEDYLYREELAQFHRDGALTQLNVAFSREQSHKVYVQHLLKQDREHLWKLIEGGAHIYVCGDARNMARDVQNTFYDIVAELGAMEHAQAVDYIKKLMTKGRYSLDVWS

Compound | remaining activity at 1 µM (aromatase (Aro)) [%] | Km [1] [µM] | kcat [1] [s⁻¹]
CC(C)(C#N)c1cc(Cn2cncn2)cc(C(C)(C)C#N)c1 [anastrozole] | 0.7 | – | –
aromatase (Aro) (Homo sapiens) | – | 0.0413 ± 0.0082 | 0.0003 ± 1.67e-05
